Measured values: patent US20260183437A1, “VHH ANTIBODY CONJUGATES WITH HETEROARYL CHELATORS” (ABDERA THERAPEUTICS INC., priority 2022, published 2026)

Key:
Assay in all cases: ABC (Antibody Binding Capacity) assay, receptor density
Format in all cases: cell-based
[1] = system: H82
Description: (§1) In order to test efficacy of the immunoconjugate binding with respect to target density receptor density was measured on target positive cell lines. Target density was measured using the ABC (Antibody Binding Capacity) assay. Cancer cells expressing the target of interest, as well as a negative control cell line, were harvested with cell dissociation buffer, seeded at about 5×10^4 cells per well into 96-well V bottom plate (Sarstedt 82.1583.001). Cells were tested for receptor expression using QuantiBRITE PE beads (BD Cat #340495) and a PE-conjugated anti-hu IgG (Biolegend clone HP6017) following the manufacturers' instructions. In brief, VHH-Fc and isotype control antibodies were prepared at suitable saturating concentrations based on previous experiments. Antibody sample dilutions were incubated with the panel of cell lines on ice for 1 hour. Cells were washed twice with 1% FBS in 1×PBS (FACS buffer), centrifuged at 400 G for 4 min. Cells were then incubated with 4 μg/mL mouse PE-conjugated anti-hu and DAPI (1:1000) for 30 minutes on ice. Cells were washed twice with FACS buffer, centrifuged at 400 G for 4 minutes and resuspended in FACS buffer. Fluorescence intensity on the PE channel was measured on the iQue Screener platform, and data were processed with ForeCyt software. The amount of PE signal generated from the different primary antibody was then fit to a standard curve based off of known PE molecules/Quantibrite bead samples to determine the number of antibody-binding sites per cell. Relative antibody binding sites correlate to the number of antigens or receptors on cell surface.

[2] = system: HEK-DLL3
Description: as §1

[3] = system: SHP-77
Description: as §1

B1: Rovalpituzumab: control antibody for DLL3 binding (Creative Biolabs #TAB-216CL) (antibody, chains of the INN, looked up, V domains shown)
VH: QVQLVQSGAEVKKPGASVKVSCKASGYTFTNYGMNWVRQAPGQGLEWMGWINTYTGEPTYADDFKGRVTMTTDTSTSTAYMELRSLRSDDTAVYYCARIGDSSPSDYWGQGTLVTVSS
VL: EIVMTQSPATLSVSPGERATLSCKASQSVSNDVVWYQQKPGQAPRLLIYYASNRYTGIPARFSGSGSGTEFTLTISSLQSEDFAVYYCQQDYTSPWTFGQGTKLEIK
**Q.** For B1, which “Estimated number of epitopes/cell” value [1] is on record?
**A.** 936 epitopes/cell

**Q.** What about the “Estimated number of epitopes/cell” value [2] of the same molecule?
**A.** 1679 epitopes/cell

**Q.** And the “Estimated number of epitopes/cell” value [3]?
**A.** 969 epitopes/cell
